Test results taken from PMC6988801, “Characterization of a Dimeric Arginase From Zymomonas mobilis ZM4” (Frontiers in Microbiology, 2019).

Tests used:
zmARG = molecular target: T1, zmARG (Zymomonas mobilis, UniProt Q5NQE9); experiment: arginase activity assay kit, urea colorimetric at […] nm; type: biochemical; settings: read-out: % inhibition at 5 mM
T1 construct: gene ZMO0432; full length Met1-Lys290; E. coli BL21(DE3) Star, pSKB3, N-terminal His6 with TEV site (25 extra residues); GH left after cleavage; EDTA-dialysed; dimer 64 kDa

purified protein = substrate: N=C(N)NCCC[C@H](N)C(=O)O; experiment: purified protein; type: biochemical, Zymomonas mobilis; settings: Mn-dependent enzyme; metal, pH and temperature of the kinetic run not given
[1] = molecular target: the molecule itself; experiment: AF4-MALS; asymmetrical flow field-flow fractionation with multi-angle light scattering; Eclipse DUALTEC AF4, DAWN Heleos II 18-angle MALS; Zimm model

N[C@@H](CCCCB(O)O)C(=O)O [ABH, 2(S)-amino-6-boronohexanoic acid]
inhibition at 5000 µM (zmARG): ~95%

B1: zmARG (Zymomonas mobilis subsp. mobilis ZM4 = ATCC 31821) (protein)
chain: MSSINKPLRLIFPQWQGGDNPPYYLGSQLLAWLSPDPKGAVEEVPVPKPTGEPLQEENGIVGRSILIDQLSEARQLIEKHTPDSLVVLGGDCLVSLAPFSWLLEKYKDKLGILWIDSHPDVQTPKEYKNAHAHVLGELMGNGDSDFTRTVKHPVSPQKIMIAGIHDPLPYEANFISEHKIQTCSPEQVRSGAQPVLDWIKNEKIEYLAIHIDLDVLDPHNFRSVLFAKPGRGQHDFGDVAEGKLNIPDVVKLANQAASISKAVGLTIAEHLPWDALNLKNMLEELPLIGK
notes: full length Met1-Lys290; E. coli BL21(DE3) Star, pSKB3, N-terminal His6 with TEV site (25 extra residues); GH left after cleavage; EDTA-dialysed; dimer 64 kDa
Km (purified protein): 6.8 mM | kcat (purified protein): 302 s^–1

B2: arginase from Zymomonas mobilis ZM4 (zmARG) (enzyme, Zymomonas mobilis subsp. mobilis ZM4)
chain: GHMSSINKPLRLIFPQWQGGDNPPYYLGSQLLAWLSPDPKGAVEEVPVPKPTGEPLQEENGIVGRSILIDQLSEARQLIEKHTPDSLVVLGGDCLVSLAPFSWLLEKYKDKLGILWIDSHPDVQTPKEYKNAHAHVLGELMGNGDSDFTRTVKHPVSPQKIMIAGIHDPLPYEANFISEHKIQTCSPEQVRSGAQPVLDWIKNEKIEYLAIHIDLDVLDPHNFRSVLFAKPGRGQHDFGDVAEGKLNIPDVVKLANQAASISKAVGLTIAEHLPWDALNLKNMLEELPLIGK
notes: two additional amino acids left at the N-terminus after TEV cleavage of the vector-encoded His6 tag; arginase zmARG, product of the ZMO0432 gene of Zymomonas mobilis subsp. mobilis ZM4, Met1-Lys290, amplified from genomic DNA; Two zinc ions are modelled in the active site of each subunit in the crystal; A Se-Met substituted form (made in B834 (DE3)) was used for phasing only; also called ZMO0432 …
stoichiometry N [1]: 2
